This note sets out measurements from US20260216293A1, “METHODS AND AGENTS FOR TREATING RESPIRATORY INFLAMMATION AND ASSOCIATED DISEASES AND CONDITIONS” (AROA BIOSURGERY LIMITED, priority 2023, published 2026).

What all share (format): in vivo, C57BL/6 mice
Test [1] relates to murine model of respiratory inflammation (IT LPS). Put plainly: MPO levels of BALF in LPS-induced murine model of respiratory inflammation. As to conditions: groups 4, 5 and 6 (2.5, 25, 100 μg/animal IV) at 6 hours and 24 hours; FIG. 6. The method, then:
(§1) At −1 h (1 hr before the lipopolysaccharide (LPS) administration), animals were treated with: Vehicle for groups 1 and 2 via an intravenous route (200 μL); dexamethasone (5 mg/kg) as a positive control (group 3) via an intraperitoneal (IP) route (5 mg/kg, 200 μL); MD31-170 for groups 4-6 via an intravenous (IV) route at the appropriate dosage (200 μL).
After administration of anesthesia by sodium pentobarbital, the mice underwent intra-tracheal (IT) instillation of a nonlethal dose of LPS from E. coli 0111: B4 (Sigma-Aldrich, St. Louis, MO, USA) at 5 mg/kg dissolved in 100 μl PBS to induce acute respiratory inflammation. LPS (Sigma L4391, O111: B4) lyophilized powder was resuspended in 0.9% saline to give aliquots at 2.5 mg/ml which were stored at 20° C. […]
(§2) Lungs were harvested from each animal and weighed. […] The cell pellet was resuspended in 100 μL PBS and the number of total cells was counted using Cell Counter model R1 (Olympus, Tokyo, Japan). […] Neutrophil counts were quantified using a light microscope by counting a total of 200 cells/slide at 40× magnification.
MPO levels were evaluated from an aliquot of BALF in an MPO assay using Abcam kit (Cat. Ab155458) according to manufacturer's instructions.

For test [2] the test system is unchanged. Briefly: BALF cytokine analysis (MSD) in LPS-induced murine model of respiratory inflammation. As to conditions: IV, 1 h before LPS. The method, then:
All animal experiments were performed in accordance with the guidelines of decreasing the amount of suffering, pain, and discomfort of the experimental animals. A total of 54 male C57BL/6 mice were used in this study. Mice between the ages of 7 to 8 weeks were obtained from IACUC approved laboratory animal supplier. Animals were acclimated for at least 4 days prior to the study. Animals were housed in a temperature-controlled room with a 12-hour light/dark cycle, with ad libitum access to water and irradiated laboratory chow throughout the study. Animals were individually identified by ear tags. Animals were weighed one day prior to the start of the study and stratified into 6 groups of 9 animals so that each group has roughly the same average weight. Animals were monitored for any form of discomfort as well as for clinical symptoms of distress or ambulatory discomfort.
A total of 54 male C57BL/6 mice (7 to 8 weeks old, body weight […]) were used in this study, as set out below in Table 2.
At −1 h (1 hr before the lipopolysaccharide (LPS) administration), animals were treated with: Vehicle for groups 1 and 2 via an intravenous route (200 μL); dexamethasone (5 mg/kg) as a positive control (group 3) via an intraperitoneal (IP) route (5 mg/kg, 200 μL); MD31-170 for groups 4-6 via an intravenous (IV) route at the appropriate dosage (200 μL). […]
as §2
BALF cytokines concentrations were evaluated from an aliquot of BALF using the 29-plex cytokine MSD Platform (Cat. K152167D) according to manufacturer's instruction.

Test [3] has the same test system. Put plainly: Lung histological pathology (H&E, lung injury score) in LPS-induced murine model of respiratory inflammation. The method, then: as §1
(§3) After administration of anesthesia by sodium pentobarbital, the mice underwent intra-tracheal (IT) instillation of a nonlethal dose of LPS from E. coli 0111: B4 (Sigma-Aldrich, St. Louis, MO, USA) at 5 mg/kg dissolved in 100 μl PBS to induce acute respiratory inflammation. LPS (Sigma L4391, O111: B4) lyophilized powder was resuspended in 0.9% saline to give aliquots at 2.5 mg/ml which were stored at […]. At time=0 h, animals in vehicle group 1 were administered PBS (40 μL) via an IT route and animals in groups 2-6 were administered LPS (40 μL) at 5 mg/kg by an IT route to induce acute respiratory inflammation. Termination occurred at either 6 h, 24 h or 72 h with each animal weighed at the endpoint.
The whole lung was fixed in 10% Neutral Buffered Formalin (NBF) and embedded in paraffin and then cut into 4 μm sections. Then, the sections were deparaffinized and stained with hematoxylin and eosin (H&E) for histological evaluation.
The severity of lung tissue inflammation was evaluated using lung injury score as follows. The severity of lung damage was scored based on the following histologic features: alveolar congestion, hemorrhage, infiltration of neutrophils in airspace or vessel wall, and thickness of alveolar wall/hyaline membrane formation. Each item was graded on a five-point scale from 0 to 4:0 (minimal damage), 1 (mild damage), 2 (moderate damage), 3 (severe damage), and 4 (maximal damage).

Test [4] shares this test system. Briefly: BALF neutrophil count in LPS-induced murine model of respiratory inflammation. The conditions noted are these: all assessed timepoints (6, 24, 72 hours); FIG. 5. The method, then: as §1, §3, §2
[5] abbreviates: groups 4, 5 and 6 vs dexamethasone 5 mg/kg IP, FIGS. 7-9.

B1: MD31-170: recombinant MayDay polypeptide comprising amino acids 31-170 of ovine decorin, expressed in BL21 E. coli (protein)
chain: DEASGIGPEERFHEVPELEPMGPVCPFRCQCHLRVVQCSDLGLEKVPKDLPPDTALLDLQNNKITEIKDGDFKNLKNLHTLILINNKISKISPGAFAPLVKLERLYLSKNQLKELPEKMPKTLQELRVHENEITKVRKSV
modifications: Ovis aries
notes: recombinant MayDay polypeptide comprising amino acids 31-170 of ovine decorin, expressed in BL21 E. coli
On to B1, for which the “myeloperoxidase (MPO) in BALF” value in test [1] is given as “significantly reduced”. Also, the “protein levels of TNF-α in BALF” value in test [2] (6 hours post-administration, compared to LPS control group (group 2), FIG. 2A) is on record as “significantly decreased”. Also, the “protein levels of IFN-γ in BALF” value in test [2] (24 hours post-administration, compared with LPS group (group 2), FIG. 3B) is recorded as “significantly decreased”. Also, the “protein levels of IL-6 in BALF” value in test [2] (24 hours post-administration, compared with LPS group (group 2), FIG. 4B) is on record as “significantly decreased”. The “neutrophil score, inflammation score and interstitial inflammation score: dose dependence” value in test [3] (6, 24 and 72 hours post LPS-induction) was “dose dependent changes”. Further, the “neutrophil score (histology)” value in test [3] (24 hours, group 6 (100 μg/mouse) compared to LPS control (group 2), FIG. 7B) is on record as “statistically significant decreases”. For the same molecule, in test [3] (24 hours, group 6 (100 μg/mouse) compared to LPS control (group 2), FIG. 8B), the “inflammation score (inflammation-neutrophilic alveolar score, histology)” value is “statistically significant decreases”. Also, in test [3] (24 hours, group 6 (100 μg/mouse) compared to LPS control (group 2), FIG. 9B), the “interstitial inflammation score (histology)” value was “statistically significant decreases”. In test [3] (groups 4, 5 and 6 (2.5, 25, 100 μg/animal IV)), the lung injury score entry is “consistently and substantially decreased”. Besides, the “pathological changes in the lung (alveolar wall not intact, interstitial edema, inflammatory cell infiltration)” value in test [3] (groups 4, 5 and 6 (2.5, 25, 100 μg/animal IV), H&E) is recorded as “alleviated”. In test [3] (setting [5]), the “lung damage relative to dexamethasone treated animals (group 3)” value was “comparable or less than” and the “positive effect on lung pathology relative to positive control dexamethasone (group 3)” value is recorded as “comparable to or better than”. Besides, the “number of neutrophils in BALF” value in test [4] is “decreased significantly”.
